Measured values from paper PMC5937737, “RIT1 controls actin dynamics via complex formation with RAC1/CDC42 and PAK1” (PLoS Genetics, 2018).

Assays:
Assay in all cases: pull-down; in-vitro binding assay: GST fusion protein (1 μM) on glutathione agarose mixed with His-RIT1 (0.5 μM or a concentration series) loaded with GDP or GTPγS; 20 mM Tris-HCl, 100 mM NaCl, 0.1% Triton X-100, 1 mM DTT, 100 mM MgCl2; 30 min at room temperature; anti-His immunoblot
Details in all cases: both partners purified
[1] = target: T1, His-RIT1^WT (amino acids 1-201) (human, UniProt Q92963-1 1-201)
T1 construct: RIT1, human; loaded with GDP or non-hydrolyzable GTPγS before the assay; also called His-tagged RIT1; recombinant His-tagged RIT1 wildtype; source: E. coli BL21 (pET151/D-TOPO-RIT1^WT), purified

[2] = target: T2, His-RIT1^A57G (amino acids 1-201) (human, UniProt Q92963-1 1-201, A57G)
T2 construct: RIT1, human; Noonan syndrome-associated substitution in switch I; loaded with GDP or non-hydrolyzable GTPγS before the assay; also called RIT1 mutant p.A57G (recombinant); source: E. coli BL21 (pET151/D-TOPO-RIT1^A57G), purified

[3] = target: T3, His-RIT1^F82L (amino acids 1-201) (human, UniProt Q92963-1 1-201, F82L)
T3 construct: RIT1, human; Noonan syndrome-associated substitution in switch II; loaded with GDP or non-hydrolyzable GTPγS before the assay; also called RIT1 mutant p.F82L (recombinant); source: E. coli BL21 (pET151/D-TOPO-RIT1^F82L), purified
T3 sequence (Q92963 1-201 F82L): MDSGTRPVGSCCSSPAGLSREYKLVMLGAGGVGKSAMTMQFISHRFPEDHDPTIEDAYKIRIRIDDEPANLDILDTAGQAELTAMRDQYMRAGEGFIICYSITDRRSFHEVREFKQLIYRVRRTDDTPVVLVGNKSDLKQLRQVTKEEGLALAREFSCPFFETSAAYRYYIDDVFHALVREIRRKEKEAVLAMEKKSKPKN

T1 sequence (Q92963 1-201): as the sequence (Q92963 1-201 F82L) above, with L82F counted along it
T2 sequence (Q92963 1-201 A57G): as the sequence (Q92963 1-201 F82L) above, with A57G, L82F counted along it

Binder	binding result [1]	binding result [2]	binding result [3]
GST-CDC42 (amino acids 1-178) (domain or fragment, CDC42, amino acids 1-178; loaded with GDP or GTPγS before the assay; source: E. coli BL21 (pGEX-4T3-CDC42), isolated, coupled to glutathione agarose beads) not shown	binds	–	–
GST-PAK[CRIB] (domain or fragment, UniProt Q13153 58-141, looked up, PAK1, CRIB domain, amino acids 58-141; source: E. coli BL21 (pGEX-2TK-PAK[CRIB]), isolated, coupled to glutathione agarose beads) ILPGDKTNKKKEKERPEISLPSDFEHTIHVGFDAVTGEFTGMPEQWARLLQTSNITKSEQKKNPQAVLDVLEFYNSKKTSNSQK	binds	binds	binds
